Columns and labels:
Assay in all cases: cell-based or functional assay
[1] = biological target: spike protein of SARS-CoV-2 Delta strain (B.1.617.2) (SARS-CoV-2)
[2] = biological target: spike protein of SARS-CoV-2 Mu strain (B.1.621) (SARS-CoV-2)
[3] = biological target: spike protein of SARS-CoV-2 Gamma strain (P.1) (SARS-CoV-2)
[4] = biological target: spike protein of SARS-CoV-2 Omicron BA.2 (SARS-CoV-2)
[5] = biological target: spike protein of SARS-CoV-2 Lambda strain (C.37) (SARS-CoV-2)
[6] = biological target: spike protein of SARS-CoV-2 Omicron BA.1.1 (SARS-CoV-2)
[7] = biological target: spike protein of SARS-CoV-2 Kappa strain (B.1.617.1) (SARS-CoV-2)
[8] = biological target: spike protein of SARS-CoV-2 Omicron BA.4/5 (SARS-CoV-2)
[9] = biological target: spike protein of SARS-CoV-2 Beta strain (B.1.351) (SARS-CoV-2)
[10] = biological target: spike protein of SARS-CoV-2 Alpha strain (B.1.1.7) (SARS-CoV-2)
[11] = biological target: spike protein of SARS-CoV-2 Omicron BA.3 (SARS-CoV-2)
[12] = biological target: spike protein of SARS-CoV-2 Omicron BA.2.12.1 (SARS-CoV-2)
[13] = biological target: spike protein of SARS-CoV-2 prototype (614G) (SARS-CoV-2, UniProt P0DTC2 14-1273)
[14] = biological target: spike protein of SARS-CoV-2 Omicron BA.1 (SARS-CoV-2)

Binder	IC50, pseudovirus neutralization [1] [µg/mL]	IC50, pseudovirus neutralization [2] [µg/mL]	IC50, pseudovirus neutralization [3] [µg/mL]	IC50, pseudovirus neutralization [4] [µg/mL]	IC50, pseudovirus neutralization [5] [µg/mL]	IC50, pseudovirus neutralization [6] [µg/mL]	IC50, pseudovirus neutralization [7] [µg/mL]	IC50, pseudovirus neutralization [8] [µg/mL]	IC50, pseudovirus neutralization [9] [µg/mL]	IC50, pseudovirus neutralization [10] [µg/mL]	IC50, pseudovirus neutralization [11] [µg/mL]	IC50, pseudovirus neutralization [12] [µg/mL]	IC50, pseudovirus neutralization [13] [µg/mL]	IC50, pseudovirus neutralization [14] [µg/mL]
1-58 antibody (antibody, V domains shown) VH: QVQLVQSGAEVKKPGASVRVSCKASGYSFTASYMHWVRQAPGQGLEWMAIINPGDDNTSYAQKFQGRVTLTRDTSTTTVYMELRSLRSEDTAVYYCTRSTRDYVWGNYRYTPGYYLDYWGQGTLVTVSS VL: DIRMTQSPSSLSASVGDRVTITCRASQTISNYLNWYQQKPGKAPKLLIYAASSLQSGVPSRFSGSGSGTDFTLTISSLQPEDFATYYCQQGYITPITFGQGTRLEIK	< 0.087	< 0.087	< 0.087	< 0.087	< 0.087	< 0.087	< 0.087	< 0.087	< 0.087	< 0.087	< 0.087	< 0.087	< 0.087	< 0.087
1-44 antibody (antibody, V domains shown) VH: EVQLVESGGGVVQPGSSLRLSCAASGFTFRSHAMHWVRQAPGKGLEGVAVIWYDGSNKYYADSVKGRFTISRDNSKNTLYLQMNSLRAEDTAVYYCAREGIAVPGNGADAFDIWGQGTMVTVSS VL: DIQMTQSPSSLSASVGDRVTITCRASQSIGNFLNWYQQKPGKAPKLLIYAASSLQSGVPSRFSGSGSGTDFTLTISSLQPEDFATYYCQQTYSTPYTFGQGTKLEIK	–	–	< 0.47	< 0.47	< 0.47	< 0.47	< 0.47	–	< 0.47	< 0.47	< 0.47	< 0.47	< 0.47	< 0.47
4-66 antibody (antibody, V domains shown) VH: EVQLVESGGGLVQPGGSLRLSCAASGIIVSRNYMTWVRQAPGKGLEWVSVIYSGGTTYYADSVKGRFTTSRDDSKNTLYLQMNSLRGDDTAVYYCARDPPHRRGSYWGQGTLVTVSS VL: DILMTQSPSSLSASVGDRVTITCQASQDINKYLNWYQQKPGKAPKLLIYDASNLETGVPSRFSGSGSGTDFSFTISSLQPEDVATYYCQQSDNLPPTFGQGTNVEIK	< 0.21	< 0.21	< 0.21	< 0.21	< 0.21	< 0.21	< 0.21	< 0.21	< 0.21	< 0.21	< 0.21	< 0.21	< 0.21	< 0.21

Reference: patent publication US20260139035A1 (NATIONAL UNIVERSITY CORPORATION KUMAMOTO UNIVERSITY, published 2026)
